Reference: article PMC5895748

Target: human Toll-like receptor 5 (hTLR5) (human) (UniProt O60602)
Sequence of UniProt O60602 (O60602 21-858): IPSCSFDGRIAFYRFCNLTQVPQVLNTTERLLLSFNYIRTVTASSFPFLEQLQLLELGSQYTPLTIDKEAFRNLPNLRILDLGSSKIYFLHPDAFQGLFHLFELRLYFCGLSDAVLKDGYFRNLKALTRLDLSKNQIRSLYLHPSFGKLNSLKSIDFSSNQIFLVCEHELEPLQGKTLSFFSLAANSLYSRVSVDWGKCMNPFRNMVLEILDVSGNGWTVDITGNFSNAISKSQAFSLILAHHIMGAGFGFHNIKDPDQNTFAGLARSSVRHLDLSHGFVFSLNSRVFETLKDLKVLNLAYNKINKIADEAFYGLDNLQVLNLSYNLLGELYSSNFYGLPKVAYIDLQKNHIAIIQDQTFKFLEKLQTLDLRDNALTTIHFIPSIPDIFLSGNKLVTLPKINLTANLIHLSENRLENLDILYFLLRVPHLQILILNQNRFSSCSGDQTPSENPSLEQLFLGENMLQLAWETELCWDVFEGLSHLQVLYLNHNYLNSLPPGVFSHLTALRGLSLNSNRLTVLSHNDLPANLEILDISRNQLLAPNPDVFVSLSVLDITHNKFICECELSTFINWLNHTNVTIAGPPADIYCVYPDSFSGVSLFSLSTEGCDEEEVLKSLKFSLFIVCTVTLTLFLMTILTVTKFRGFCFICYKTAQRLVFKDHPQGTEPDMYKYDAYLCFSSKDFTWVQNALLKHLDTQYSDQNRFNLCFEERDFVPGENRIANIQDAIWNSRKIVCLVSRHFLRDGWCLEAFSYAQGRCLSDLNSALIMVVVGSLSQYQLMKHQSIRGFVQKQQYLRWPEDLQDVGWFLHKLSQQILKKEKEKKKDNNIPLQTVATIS

Row | Substance | EC50 of TLR5 stimulation, HEK293blue-hTLR5 reporter cells (NF-kB-inducible SEAP) [pM] | EC50 of TLR5 stimulation, HEK293blue-hTLR5 reporter cells (SEAP); protein incubated at 37 °C for 24 hours before the assay [pM]
1 | Bacillus cereus flagellin BC1658 (BcFlg) (natural protein) | 1.7 | 1.9
2 | Bacillus cereus flagellin BC1659 (natural protein) | 55.4 | 
3 | BcFlg^cF, T4 lysozyme fused to the C-terminal end of BcFlg | 2.3 | 129
4 | BcFlg^mF, T4 lysozyme inserted into BcFlg residues 178-180 | 1.4 | 2.4
5 | BcFlg^nF, T4 lysozyme fused to the N-terminal end of BcFlg | 44.2 | 
